According to IntAct's records for PubMed 23415225:

B1: AP-1 complex subunit beta-1 (Homo sapiens), Q10567 (parent)
chain: MTDSKYFTTTKKGEIFELKAELNSDKKEKKKEAVKKVIASMTVGKDVSALFPDVVNCMQTDNLELKKLVYLYLMNYAKSQPDMAIMAVNTFVKDCEDPNPLIRALAVRTMGCIRVDKITEYLCEPLRKCLKDEDPYVRKTAAVCVAKLHDINAQLVEDQGFLDTLKDLISDSNPMVVANAVAALSEIAESHPSSNLLDLNPQSINKLLTALNECTEWGQIFILDCLANYMPKDDREAQSICERVTPRLSHANSAVVLSAVKVLMKFMEMLSKDLDYYGTLLKKLAPPLVTLLSAEPELQYVALRNINLIVQKRPEILKHEMKVFFVKYNDPIYVKLEKLDIMIRLASQANIAQVLAELKEYATEVDVDFVRKAVRAIGRCAIKVEQSAERCVSTLLDLIQTKVNYVVQEAIVVIKDIFRKYPNKYESVIATLCENLDSLDEPEARAAMIWIVGEYAERIDNADELLESFLEGFHDESTQVQLQLLTAIVKLFLKKPTETQELVQQVLSLATQDSDNPDLRDRGYIYWRLLSTDPVAAKEVVLAEKPLISEETDLIEPTLLDELICYIGTLASVYHKPPSAFVEGGRGVVHKSLPPRTASSESAESPETAPTGAPPGEQPDVIPAQGDLLGDLLNLDLGPPVSGPPLATSSVQMGAVDLLGGGLDSLMGDEPEGIGGTNFVAPPTAAVPANLGAPIGSGLSDLFDLTSGVGTLSGSYVAPKAVWLPAMKAKGLEISGTFTRQVGSISMDLQLTNKALQVMTDFAIQFNRNSFGLAPAAPLQVHAPLSPNQTVEISLPLSTVGSVMKMEPLNNLQVAVKNNIDVFYFSTLYPLHILFVEDGKMDRQMFLATWKDIPNENEAQFQIRDCPLNAEAASSKLQSSNIFTVAKRNVEGQDMLYQSLKLTNGIWVLAELRIQPGNPSCTDLELSLKCRAPEVSQHVYQAYETILKN
B2: AP-1 complex subunit gamma-1 (Mus musculus), P22892 (parent)
chain: MPAPIRLRELIRTIRTARTQAEEREMIQKECAAIRSSFREEDNTYRCRNVAKLLYMHMLGYPAHFGQLECLKLIASQKFTDKRIGYLGAMLLLDERQDVHLLMTNCIKNDLNHSTQFVQGLALCTLGCMGSSEMCRDLAGEVEKLLKTSNSYLRKKAALCAVHVIRKVPELMEMFLPATKNLLNEKNHGVLHTSVVLLTEMCERSPDMLAHFRKLVPQLVRILKNLIMSGYSPEHDVSGISDPFLQVRILRLLRILGRNDDDSSEAMNDILAQVATNTETSKNVGNAILYETVLTIMDIKSESGLRVLAINILGRFLLNNDKNIRYVALTSLLKTVQTDHNAVQRHRSTIVDCLKDLDVSIKRRAMELSFALVNGNNIRGMMKELLYFLDSCEPEFKADCASGIFLAAEKYAPSKRWHIDTIMRVLTTAGSYVRDDAVPNLIQLITNSVEMHAYTVQRLYKAILGDYSQQPLVQVAAWCIGEYGDLLVSGQCEEEEPIQVTEDEVLDILESVLISNMSTSVTRGYALTAIMKLSTRFTCTVNRIKKVVSIYGSSIDVELQQRAVEYNALFKKYDHMRSALLERMPVMEKVTTNGPSEIVQTNGETEPAPLETKPPPSGPQPTSQANDLLDLLGGNDITPVIPTAPTSKPASAGGELLDLLGDITLTGAPAAAPTPASVPQISQPPFLLDGLSSQPLFNDIAPGIPSITAYSKNGLKIEFTFERSNTNPSVTVITIQASNSTELDMTDFVFQAAVPKTFQLQLLSPSSSVVPAFNTGTITQVIKVLNPQKQQLRMRIKLTYNHKGSAMQDLAEVNNFPPQSWQ
partner: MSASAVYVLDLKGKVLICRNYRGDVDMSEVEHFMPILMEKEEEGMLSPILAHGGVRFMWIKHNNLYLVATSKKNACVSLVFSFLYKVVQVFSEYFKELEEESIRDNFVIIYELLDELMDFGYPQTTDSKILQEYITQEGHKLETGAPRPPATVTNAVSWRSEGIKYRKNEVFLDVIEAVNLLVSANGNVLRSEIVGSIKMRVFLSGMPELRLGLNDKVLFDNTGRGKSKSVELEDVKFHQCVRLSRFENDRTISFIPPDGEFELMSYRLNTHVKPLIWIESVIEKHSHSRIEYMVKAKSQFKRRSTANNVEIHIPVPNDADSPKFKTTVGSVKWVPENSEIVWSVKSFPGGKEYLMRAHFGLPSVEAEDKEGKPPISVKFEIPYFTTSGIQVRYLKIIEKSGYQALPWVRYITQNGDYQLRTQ

Variants of: B1
Details: with ap1g1_human AP1G1, O43747

Row | Variant | effect of a mutation on the interaction
1 | I85D;V88D | disrupting interaction strength

Variants of: B2
Details: with ap1m1_mouse Ap1m1, P35585

Row | Variant | effect of a mutation on the interaction
2 | L68D;L71E;L102E | disrupting interaction strength
